Experimental data taken from patent publication US11001846B2, “Aptamers, nucleic acid molecules, polynucleotides, synthetic antibodies compositions for detecting PRRS viruses and treating PRRS virus infection” (AEROVIRUS TECHNOLOGIES INC., priority 2015, dated 2021).
Entries after “also recorded” stand apart in the source; their conditions may differ.

How the values were obtained:
[1] = test system: M-S-S-GP5 peptidic complex; assay: ELISA reverse screening: binding to M-S-S-GP5 peptidic complex, type 2; details: type 2 PRRSV complex
Description: ssDNA aptamers were denatured at 80° C. for 10 min and then cooled on ice for 10 min. Aptamers (30 nmole) were mixed with 25 μg of M-S-S-GP5 peptidic complex (further described in Example 6 below) in 500 μl selection buffer (50 mM Tris-HCl; pH 7.4, 5 mM KCl, 100 mM NaCl, 1 mM MgCl2 tRNA, 0.2% BSA) at 37° C. for 30 min. Aptamer-peptide complex was purified by adding the 25 μl Ni-NTA superflow and amplified by PCR using primers directed to the common T3 sequences in the aptamer library, and 3′-primer (i.e. -[…]-3′). SELEX was repeated 3 times, following which amplified nucleotides were transformed into E. coli. PCR conditions for SELEX included 5 min 95° C./1 min 95° C./1 min 55° C./1 min 72° C./10 min 72° C. and 100 pmole of each primer.
Selected ssDNA molecules from each individual clone were biotinylated using the B-T3 which is same sequence with 5′ primer (T3 primer), and Klenow fragment (2 unit/ml). To prepare single stranded biotin conjugated CoocSeq5 aptamer for the reverse screening, T3 Primer was Biotin labelled. A 96-well flat bottom ELISA plate was prepared by coating each well with 100 μl of streptavidin (100 μg/ml) diluted in 0.1 M NaHCO3 following by a 37° C. overnight incubation. Following several washings with PBS, wells were blocked with 200 μl of PBS containing 1% BSA for 2 hours at room temperature and subsequent washing three times with PBS-T (10 mM PBS containing 0.05% (v/v) Tween-20). […]
High binding capacity ELISA plates (Immunoplate, Nunc) were coated with 100 μl allantoic fluid containing 500 TCID50 of various PRRS virus strains diluted in phosphate buffered saline (PBS) by incubating at 4° C. overnight. […] Following this incubation period, plates were washed five times in PBS-T and bound antibodies were detected using horseradish peroxidase labelled goat anti-mouse IgG conjugates (HRP). […] Reaction was terminated with 50 μl of 2M H2SO4, plates were read with a multichannel spectrophotometer at 570 nm.

[2] = test system: LHVA-3 PRRS virus; assay: MTT assay, in vitro protection of PAMs or MARC-145 cells from LHVA-3 infection; assay type: cell-based, PRRSV; details: for protective effect when added after virus incubation: FIG. 9d
Description: PAMs or MARC-145 cells were plated in 96 well plates (7×10^4/well) one day prior to the assay. […] Following infection, cells were incubated in growth medium at 37° C. for 72 hours. MTT assay was performed by adding 4 mg/ml MTT (3-[4,5-Dimethylthiazol-2-yl]-2,5-diphenyltetrazolium bromide dissolved in PBS to the cell cultures and incubation at 37° C. for 3 hours. Plates were then centrifuged at 800×g for 10 min. Supernatants were aspirated and the formazan dye was dissolved in 150 μl/well of isopropyl alcohol, and O.D. values were determined with an ELISA reader at 570 nm.
In Vitro Viral Protection Prior to Viral Infection PAMs or MARC-145 cells were plated on 96 well plates (7×10^4/well) 24 hours prior to the experiment. Each well was washed twice with DPBS prior to treating the cells with various amounts of A505 (12.5 to 2000 pmole) at 37° C. for the indicated time points. […] Following incubation, cells were transferred to growth medium and incubated at 37° C. for 72 hours. Thereafter an MTT assay was implemented as described.
In Vitro Viral Protection Following Viral Infection—PAMs or MARC-145 cells were plated on 96 well plates (7×10^4/well) 24 hours prior to viral infection. Viral infection was effected as described above. Infected cells were gently washed with DPBS for 3 times. Cells were then treated with various amounts of A505 (12.5 to 2000 pmole) for 1 hour at 37° C. Following incubation, cells were transferred to growth medium and incubated at 37° C. for 72 hours. Thereafter an MTT assay was implemented as described.

[3] = test system: type 2 PRRSV (VR2332, LHVA-93-3, NVSL-93-2335); assay: Strain-specific neutralization (FIG. 11), type 2 strains; assay type: cell-based
[4] = test system: various PRRSV strains; assay: In-vivo protection of swine against various PRRSV strains (Example 4); details: 15 ug/Kg, treatment on the day of infection; each strain 40TCID50/ml; FIG. 13a
Description: Swine were inoculated intranasally with sub-lethal infectious fluid containing 40TCID50/ml PRRS virus (LHVA-93-3) with or without 2.5 nmole A505 aptamer for different time intervals. Pig body weight was monitored for 2 weeks. Viral titer in the lungs was determined by the CPE titration method (OIE Terrestrial Manual—May 2015, Chapter 2.8.7—Porcine Reproductive and Respiratory Syndrome, section 1.1.3). Other pigs were sacrificed 6 days following viral inoculation and lungs were removed and homogenized in PBS 0.1% BSA (10% w/v). Following homogenization, samples were centrifuged to remove debris and stored at −80° C.
The cells/viruses were incubated for 2-5 days and observe daily for a CPE. At day 2, seed macrophages in new microtitre plates. Fifty (50) μl of the supernatants were transferred from the plates of the first passage to the corresponding wells of the freshly seeded plates (second passage). The wells were incubated for 2-5 days and observed daily for a CPE. The results of the CPE assays were presented as log TCID50.
Were implemented as described hereinabove. A dose of 15 ug/Kg of A505 was used.

[5] = test system: MARC-145 cells; details: no virus; FIG. 10c

B1: A505: ssDNA aptamer binding type 2 PRRSV M-S-S-GP5 complex (nucleic acid)
DNA: GGGCGACCCTGAAGAGTTTGTAATCTGCGATTTTAAAGTTGAGTCGTCGCGAAACGGTGAAAGCCGTAGGTTGCCC
modifications: DNA, backbone and methylation of C not given here
With B1 the “binding to the M-S-S-GP5 complex/heterodimer” value [1] was “highly significant differences from the control ssDNA; also recorded: binding capacity to the M-S-S-GP5 complex; also recorded: found to bind the M-S-S-GP5 heterodimer”, the “survival rate of cells pre-incubated with aptamer then washed before infection” value ([2]; 500 pmole for 30 min or 60 min, repeated washing, then virus, FIG. 9c) was “no significant difference between the survival rate of non-treated and treated cells” and the “protection against infection of the cells” value ([2]; 500 pmole, LHVA-3, compared to non-infected MARC-145 cells, FIG. 9b) was ~60%. For the same molecule, the “protective effect when added after virus incubation” value ([2]; 500 TCID50 LHVA-93-3 for 30 min prior to 500 pmole aptamer, vs infected cells) was “highly significant difference”, the “protective effect when added after virus incubation” value ([2]; 500 TCID50 LHVA-93-3 for 60 min prior to 500 pmole aptamer) was “not significant” and the virus-associated cell-death ([2]; cells treated with aptamer prior to viral infection, FIG. 9a) was “significant reduction in virus-associated cell-death”. For the same molecule, the “neutralization of PRRS virus strains” value [3] was “only the type 2 PRRSV have been neutralized”, the “prevention of infection (lung virus titer) by various strains” value [4] was “efficient in preventing the infection by all tested strains of PRRSV” and the “morphology of cells treated with aptamer alone” value [5] was “did not affect the morphology of the cells”.
